Earlier results as cited in publication PMC7226360.

Target: NEDD8 (Homo sapiens) (UniProt Q15843)
Sequence (Q15843 1-76): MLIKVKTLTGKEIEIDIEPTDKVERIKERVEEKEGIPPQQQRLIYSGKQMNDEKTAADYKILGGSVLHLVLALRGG

Sequence of KHNYN 627-678 (O15037 627-678): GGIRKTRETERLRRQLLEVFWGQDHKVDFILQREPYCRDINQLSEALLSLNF

- Kd: 24 µM
Substance: KHNYN 627-678 (from UniProt O15037)
